Data: the Immune Epitope Database (IEDB)

How the values were obtained:
[1] = target: HLA-A*02:17; test: IEDB peptide-MHC binding, purified MHC/competitive/radioactivity; filed as Kd, often an IC50 or EC50 that approximates it; ≥ and ≤ were set here for values at or beyond the usual limits of such assays
[2] = target: HLA-A*02:06; test: as above
[3] = target: HLA-A*02:03; test: as above; settings: source organism: Dengue virus 1 Brazil/97-11/1997
[4] = target: HLA-A*02:01; test: as above
[5] = target: HLA-B*57:01; test: as above
[6] = target: HLA-B*45:01; test: as above
[7] = target: HLA-B*44:03; test: as above
[8] = target: HLA-B*18:01; test: as above
[9] = target: HLA-B*44:02; test: as above
[10] = target: HLA-B*40:02; test: as above
[11] = target: HLA-B*40:01; test: as above
[12] = target: HLA-B*48:01; test: IEDB peptide-MHC binding, purified MHC/direct/fluorescence; filed as Kd, often an IC50 or EC50 that approximates it; ≥ and ≤ were set here for values at or beyond the usual limits of such assays
[13] = target: HLA-A*24:02; test: IEDB peptide-MHC binding, purified MHC/competitive/fluorescence; ≥ and ≤ were set here for values at or beyond the usual limits of such assays; settings: source organism: Zaire ebolavirus
[14] = target: HLA-A*02:01; test: as above; settings: source organism: Zaire ebolavirus
[15] = target: HLA-A*11:01; test: as above
[16] = target: HLA-B*58:01; test: IEDB peptide-MHC binding, purified MHC/direct/fluorescence; filed as Kd, often an IC50 or EC50 that approximates it; ≥ and ≤ were set here for values at or beyond the usual limits of such assays; settings: source organism: Marburg virus - Musoke, Kenya, 1980
[17] = target: HLA-B*57:01; test: as above; settings: source organism: Marburg virus - Musoke, Kenya, 1980
[18] = target: HLA-B*15:17; test: as above; settings: source organism: Marburg virus - Musoke, Kenya, 1980
[19] = target: HLA-B*15:01; test: IEDB peptide-MHC binding, purified MHC/competitive/radioactivity; filed as Kd, often an IC50 or EC50 that approximates it; ≥ and ≤ were set here for values at or beyond the usual limits of such assays; settings: source organism: Dengue virus 2 Peru/IQT2913/1996
[20] = target: HLA-B*08:01; test: as above; settings: source organism: Dengue virus 2 Peru/IQT2913/1996
[21] = source organism: Dengue virus 1 Singapore/S275/1990
[22] = source organism: Dengue virus 1 Brazil/97-11/1997
[23] = source organism: Mammarenavirus machupoense
[24] = source organism: Dengue virus 4 Philippines/H241/1956
[25] = source organism: SARS coronavirus Tor2
[26] = source organism: Vaccinia virus
[27] = source organism: Mammarenavirus lassaense
[28] = source organism: Mammarenavirus juninense
[29] = source organism: Dengue virus 2 Thailand/NGS-C/1944

Sequence LLLTIGLSLV has a Kd [1, 21] of 2620 nM, a Kd [2, 22] of 62 nM and a Kd [3] of 14.6 nM. For the same sequence, the Kd [4, 21] was 3.91 nM.

In the case of GTSGSPIVDR, the Kd ([5]; source organism: Dengue virus 2 Jamaica/1409/1983) is reported as 2340 nM.

In the case of KLEKASLIEV, the Kd ([1]; source organism: Dengue virus 3 China/80-2/1980) is reported as 1140 nM.

KEINLLSQT gave a Kd [6, 23] of 6690 nM, a Kd [7, 23] of 14300 nM and a Kd [8, 23] of no less than 77500 nM. For the same sequence, the Kd [9, 23] was 17000 nM, the Kd [10, 23] was 31.1 nM and the Kd [11, 23] was no less than 34100 nM.

Sequence GRMEKKTWK has a Kd ([12]; source organism: West Nile virus) of no less than 20000 nM.

SSGYYSTTI was tested, and the IC50 [13] was 2140 nM, the IC50 [14] was 65200 nM and the IC50 ([15]; source organism: Zaire ebolavirus) was 33800 nM.

Sequence IILEFFLMV has a Kd [1, 24] of 182 nM and a Kd [2, 22] of 1.78 nM.

SLSMTCIAV showed a Kd [1, 21] of 49.1 nM, a Kd [3] of 124 nM and a Kd [4, 21] of 13.4 nM.

Sequence QEIQLLAAV has a Kd [6, 25] of 8.72 nM, a Kd [7, 25] of 48.5 nM and a Kd [8, 25] of 143 nM. The Kd [9, 25] was 93.3 nM, the Kd [10, 25] was 19300 nM and the Kd [11, 25] was 26.5 nM.

VGVVVSTNR showed an IC50 [15, 26] of 21500 nM.

NVTTQSIHE was tested, and the IC50 [15, 26] was no less than 148000 nM.

TELEPPCRF gave a Kd [6, 25] of 12100 nM, a Kd [7, 25] of 62.9 nM and a Kd [8, 25] of 892 nM. It also gave a Kd [9, 25] of 99 nM, a Kd [10, 25] of 14000 nM and a Kd [11, 25] of no less than 28500 nM.

KPYMAMSAL showed a Kd ([12]; source organism: Salmonella enterica subsp. enterica serovar Typhimurium) of 541 nM.

ATAVNQECW gave a Kd [16] of 51.6 nM, a Kd [17] of 122 nM and a Kd [18] of 4.1 nM.

EEVVENPTI showed a Kd [6, 25] of 1220 nM, a Kd [7, 25] of 778 nM and a Kd [8, 25] of no less than 45600 nM. For the same sequence, the Kd [9, 25] was 4540 nM, the Kd [10, 25] was 4880 nM and the Kd [11, 25] was 2730 nM.

REPAGLGSM was tested, and the Kd [6, 27] was no less than 77700 nM, the Kd [7, 27] was no less than 78100 nM and the Kd [8, 27] was 8150 nM. It also gave a Kd [9, 27] of no less than 33500 nM, a Kd [10, 27] of 85.9 nM and a Kd [11, 27] of 7910 nM.

For PDVLRSDVY, the Kd [6, 28] was no less than 77700 nM, the Kd [7, 28] was no less than 78100 nM and the Kd [8, 28] was 2250 nM. The Kd [9, 28] was no less than 48500 nM, the Kd [10, 28] was no less than 77200 nM and the Kd [11, 28] was no less than 76100 nM.

Work on SDHLISEML yielded a Kd [6, 23] of 17200 nM, a Kd [7, 23] of no less than 31700 nM and a Kd [8, 23] of no less than 77500 nM. The Kd [9, 23] was 12200 nM, the Kd [10, 23] was 217 nM and the Kd [11, 23] was no less than 22400 nM.

Work on LMMTTIGIVL yielded a Kd [1, 29] of 1190 nM, a Kd [19] of 21.7 nM and a Kd ([2]; source organism: Dengue virus 2 Peru/IQT2913/1996) of 30.8 nM. The Kd [20] was 5900 nM and the Kd [4, 29] was 28.9 nM.

For FLDLPLPWA, the Kd [1, 24] was 108 nM and the Kd [4, 24] was 10.4 nM.

LTSLGKAVHQ gave a Kd [5, 24] of no less than 70400 nM.

KQLGQVMLLV showed a Kd [1, 24] of 172 nM, a Kd ([2]; source organism: Dengue virus 3 Martinique/1243/1999) of 5.78 nM and a Kd [4, 24] of 20.2 nM.
